Patent US20260049138A1 (Chugai, published 2026)

T1: human CD154 (human, UniProt P29965 113-261, limits assumed, biotin-labeled)
T1 construct: also called biotin-labeled human CD154; biotinylated human CD154
T1 sequence (looked up): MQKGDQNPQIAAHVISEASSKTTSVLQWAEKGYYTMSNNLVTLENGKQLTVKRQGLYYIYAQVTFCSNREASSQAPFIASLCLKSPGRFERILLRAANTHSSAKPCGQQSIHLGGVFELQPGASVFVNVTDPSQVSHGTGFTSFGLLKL


Biological target: CD3ε homodimer protein (human, UniProt P07766 23-126, limits assumed)
Assay: SPR Biacore T200, CD3e homodimer on chip
Protocol: An appropriate amount of CD3ε homodimer protein was immobilized onto Sensor chip CM4 (GE Healthcare Japan Corp.) by the amine coupling method. Then, the antibody having an appropriate concentration was injected thereto as an analyte and allowed to interact with the CD3ε homodimer protein on the sensor chip. Then, the sensor chip was regenerated by the injection of 10 mmol/L glycine-HCl (pH 1.5). The assay was conducted at 25° C., and HBS-EP+ (GE Healthcare Japan Corp.) was used as a running buffer. […] Each parameter was calculated using Biacore T200 Evaluation Software (GE Healthcare Japan Corp.).

Chain of CD3ε homodimer protein (P07766 23-126 limits assumed): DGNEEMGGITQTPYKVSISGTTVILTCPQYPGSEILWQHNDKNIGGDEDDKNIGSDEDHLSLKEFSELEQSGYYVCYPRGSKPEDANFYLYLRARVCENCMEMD

Binder	KD ratio (KD of CE115HA000/KD of altered form)
CE115HA000 S52cK one-arm antibody (antibody, human IgG1, kappa, L234A L235A, N297A, name in Kabat numbering) heavy: QVQLVESGGGVVQPGRSLRLSCAASGFTFSNAWMHWVRQAPGKGLEWVAQIKAKKNNYATYYAESVKGRFTISRDDSKNSLYLQMNSLKTEDTAVYYCRYVHYGAYYGVDAWGQGTTVTVSSASTKGPSVFPLAPSSKSTSGGTAALGCLVKDYFPEPVTVSWNSGALTSGVHTFPAVLQSSGLYSLSSVVTVPSSSLGTQTYICNVNHKPSNTKVDKKVEPKSCDKTHTCPPCPAPEAAGGPSVFLFPPKPKDTLMISRTPEVTCVVVDVSHEDPEVKFNWYVDGVEVHNAKTKPREEQYASTYRVVSVLTVLHQDWLNGKEYKCKVSNKALPAPIEKTISKAKGQPREPQVYTLPPSRCELTKNQVSLSCAVKGFYPSDIAVEWESNGQPENNYKTTPPVLDSDGSFFLVSKLTVDKSRWQQGNVFSCSVMHEALHNHYTQKSLSLSPDYKDDDDK EPKSSDKTHTCPPCPAPELLGGPSVFLFPPKPKDTLMISRTPEVTCVVVDVSHEDPEVKFNWYVDGVEVHNAKTKPREEQYNSTYRVVSVLTVLHQDWLNGKEYKCKVSNKALPAPIEKTISKAKGQPREPQVCTLPPSRDELTKNQVSLWCLVKGFYPSDIAVEWESNGQPENNYKTTPPVLDSDGSFFLYSKLTVDKSRWQQGNVFSCSVMHEALHNRYTQKSLSLSP light: DIVMTQSPLSLPVTPGEPASISCRSSQSLVHSNRNTYLHWYQQKPGQAPRLLIYKVSNRFSGVPDRFSGSGSGTDFTLKISRVEAEDVGVYYCGQGTQVPYTFGQGTKLEIKRTVAAPSVFIFPPSDEQLKSGTASVVCLLNNFYPREAKVQWKVDNALQSGNSQESVTEQDSKDSTYSLSSTLTLSKADYEKHKVYACEVTHQGLSSPVTKSFNRGEC	0.88
CE115HA000 K52E one-arm antibody (antibody, human IgG1, kappa, L234A L235A, N297A, name in Kabat numbering) heavy: QVQLVESGGGVVQPGRSLRLSCAASGFTFSNAWMHWVRQAPGKGLEWVAQIEAKSNNYATYYAESVKGRFTISRDDSKNSLYLQMNSLKTEDTAVYYCRYVHYGAYYGVDAWGQGTTVTVSSASTKGPSVFPLAPSSKSTSGGTAALGCLVKDYFPEPVTVSWNSGALTSGVHTFPAVLQSSGLYSLSSVVTVPSSSLGTQTYICNVNHKPSNTKVDKKVEPKSCDKTHTCPPCPAPEAAGGPSVFLFPPKPKDTLMISRTPEVTCVVVDVSHEDPEVKFNWYVDGVEVHNAKTKPREEQYASTYRVVSVLTVLHQDWLNGKEYKCKVSNKALPAPIEKTISKAKGQPREPQVYTLPPSRCELTKNQVSLSCAVKGFYPSDIAVEWESNGQPENNYKTTPPVLDSDGSFFLVSKLTVDKSRWQQGNVFSCSVMHEALHNHYTQKSLSLSPDYKDDDDK EPKSSDKTHTCPPCPAPELLGGPSVFLFPPKPKDTLMISRTPEVTCVVVDVSHEDPEVKFNWYVDGVEVHNAKTKPREEQYNSTYRVVSVLTVLHQDWLNGKEYKCKVSNKALPAPIEKTISKAKGQPREPQVCTLPPSRDELTKNQVSLWCLVKGFYPSDIAVEWESNGQPENNYKTTPPVLDSDGSFFLYSKLTVDKSRWQQGNVFSCSVMHEALHNRYTQKSLSLSP light: DIVMTQSPLSLPVTPGEPASISCRSSQSLVHSNRNTYLHWYQQKPGQAPRLLIYKVSNRFSGVPDRFSGSGSGTDFTLKISRVEAEDVGVYYCGQGTQVPYTFGQGTKLEIKRTVAAPSVFIFPPSDEQLKSGTASVVCLLNNFYPREAKVQWKVDNALQSGNSQESVTEQDSKDSTYSLSSTLTLSKADYEKHKVYACEVTHQGLSSPVTKSFNRGEC	18.4
CE115HA000 Q50A one-arm antibody (antibody, human IgG1, kappa, L234A L235A, N297A, name in Kabat numbering) heavy: QVQLVESGGGVVQPGRSLRLSCAASGFTFSNAWMHWVRQAPGKGLEWVAAIKAKSNNYATYYAESVKGRFTISRDDSKNSLYLQMNSLKTEDTAVYYCRYVHYGAYYGVDAWGQGTTVTVSSASTKGPSVFPLAPSSKSTSGGTAALGCLVKDYFPEPVTVSWNSGALTSGVHTFPAVLQSSGLYSLSSVVTVPSSSLGTQTYICNVNHKPSNTKVDKKVEPKSCDKTHTCPPCPAPEAAGGPSVFLFPPKPKDTLMISRTPEVTCVVVDVSHEDPEVKFNWYVDGVEVHNAKTKPREEQYASTYRVVSVLTVLHQDWLNGKEYKCKVSNKALPAPIEKTISKAKGQPREPQVYTLPPSRCELTKNQVSLSCAVKGFYPSDIAVEWESNGQPENNYKTTPPVLDSDGSFFLVSKLTVDKSRWQQGNVFSCSVMHEALHNHYTQKSLSLSPDYKDDDDK EPKSSDKTHTCPPCPAPELLGGPSVFLFPPKPKDTLMISRTPEVTCVVVDVSHEDPEVKFNWYVDGVEVHNAKTKPREEQYNSTYRVVSVLTVLHQDWLNGKEYKCKVSNKALPAPIEKTISKAKGQPREPQVCTLPPSRDELTKNQVSLWCLVKGFYPSDIAVEWESNGQPENNYKTTPPVLDSDGSFFLYSKLTVDKSRWQQGNVFSCSVMHEALHNRYTQKSLSLSP light: DIVMTQSPLSLPVTPGEPASISCRSSQSLVHSNRNTYLHWYQQKPGQAPRLLIYKVSNRFSGVPDRFSGSGSGTDFTLKISRVEAEDVGVYYCGQGTQVPYTFGQGTKLEIKRTVAAPSVFIFPPSDEQLKSGTASVVCLLNNFYPREAKVQWKVDNALQSGNSQESVTEQDSKDSTYSLSSTLTLSKADYEKHKVYACEVTHQGLSSPVTKSFNRGEC	22.8
CE115HA000 W33L one-arm antibody (antibody, human IgG1, kappa, L234A L235A, N297A, name in Kabat numbering) heavy: QVQLVESGGGVVQPGRSLRLSCAASGFTFSNALMHWVRQAPGKGLEWVAQIKAKSNNYATYYAESVKGRFTISRDDSKNSLYLQMNSLKTEDTAVYYCRYVHYGAYYGVDAWGQGTTVTVSSASTKGPSVFPLAPSSKSTSGGTAALGCLVKDYFPEPVTVSWNSGALTSGVHTFPAVLQSSGLYSLSSVVTVPSSSLGTQTYICNVNHKPSNTKVDKKVEPKSCDKTHTCPPCPAPEAAGGPSVFLFPPKPKDTLMISRTPEVTCVVVDVSHEDPEVKFNWYVDGVEVHNAKTKPREEQYASTYRVVSVLTVLHQDWLNGKEYKCKVSNKALPAPIEKTISKAKGQPREPQVYTLPPSRCELTKNQVSLSCAVKGFYPSDIAVEWESNGQPENNYKTTPPVLDSDGSFFLVSKLTVDKSRWQQGNVFSCSVMHEALHNHYTQKSLSLSPDYKDDDDK EPKSSDKTHTCPPCPAPELLGGPSVFLFPPKPKDTLMISRTPEVTCVVVDVSHEDPEVKFNWYVDGVEVHNAKTKPREEQYNSTYRVVSVLTVLHQDWLNGKEYKCKVSNKALPAPIEKTISKAKGQPREPQVCTLPPSRDELTKNQVSLWCLVKGFYPSDIAVEWESNGQPENNYKTTPPVLDSDGSFFLYSKLTVDKSRWQQGNVFSCSVMHEALHNRYTQKSLSLSP light: DIVMTQSPLSLPVTPGEPASISCRSSQSLVHSNRNTYLHWYQQKPGQAPRLLIYKVSNRFSGVPDRFSGSGSGTDFTLKISRVEAEDVGVYYCGQGTQVPYTFGQGTKLEIKRTVAAPSVFIFPPSDEQLKSGTASVVCLLNNFYPREAKVQWKVDNALQSGNSQESVTEQDSKDSTYSLSSTLTLSKADYEKHKVYACEVTHQGLSSPVTKSFNRGEC	56600

Biological target: T1, human CD154
Assay: ECL competition, CD3ε[+]: CD3ε homodimer added as competitor [2]
Protocol: Next, each obtained IgG was evaluated for its binding to CD3 and human CD154 at the same time by the competition method (electrochemiluminescence method (ECL method)).
A TBST solution containing 0.5% BSA (referred to as a blocking solution; the TBST solution was TBS (manufactured by Takara Bio Inc.) supplemented with 0.1% Tween 20) was added at 150 μL/well to streptavidin plate (MSD K.K.), and the plate was incubated at room temperature for 1 hour or longer. After removal of the blocking solution, each well was washed three times with 250 μL of a TBST solution. The antibody-antigen complex solution was added thereto at 50 μL/well, and the plate was incubated at room temperature for 1 hour so that the biotinylated antigen-antibody-detection sulfo-tag antibody complex solution bound via the biotinylated antigen to the streptavidin plate. After removal of the antibody-antigen complex solution, each well was washed three times with a TBST solution, and a solution of 4×READ buffer (MSD K.K.) diluted 2-fold with water was added thereto at 150 μL/well, followed by the detection of the luminescence signal of the sulfo-tag using Sector Imager 2400 (MSD K.K.).

Binder	relative ECL reaction (to no antigen coating)
154R5A02#1 one-arm antibody (antibody, human IgG1, kappa, L234A L235A, N297A, As m48) heavy: QVQLVESGGGLVQPGRSLRLSCAASGFTFSNAWMHWVRQAPGKGLEWVAQIKDRGNNYNTYYAPSVKGRFTISRDDSKNSIYLQMNSLKTEDTAVYYCRYVHYGSYFFSGSSFGVDIWGQGTTVTVSSASTKGPSVFPLAPSSKSTSGGTAALGCLVKDYFPEPVTVSWNSGALTSGVHTFPAVLQSSGLYSLSSVVTVPSSSLGTQTYICNVNHKPSNTKVDKKVEPKSCDKTHTCPPCPAPEAAGGPSVFLFPPKPKDTLMISRTPEVTCVVVDVSHEDPEVKFNWYVDGVEVHNAKTKPREEQYASTYRVVSVLTVLHQDWLNGKEYKCKVSNKALPAPIEKTISKAKGQPREPQVYTLPPSRCELTKNQVSLSCAVKGFYPSDIAVEWESNGQPENNYKTTPPVLDSDGSFFLVSKLTVDKSRWQQGNVFSCSVMHEALHNHYTQKSLSLSPDYKDDDDK EPKSSDKTHTCPPCPAPELLGGPSVFLFPPKPKDTLMISRTPEVTCVVVDVSHEDPEVKFNWYVDGVEVHNAKTKPREEQYNSTYRVVSVLTVLHQDWLNGKEYKCKVSNKALPAPIEKTISKAKGQPREPQVCTLPPSRDELTKNQVSLWCLVKGFYPSDIAVEWESNGQPENNYKTTPPVLDSDGSFFLYSKLTVDKSRWQQGNVFSCSVMHEALHNRYTQKSLSLSP light: DIVMTQSPLSLPVTPGEPASISCRSSQSLVHSNRNTYLHWYQQKPGQAPRLLIYKVSNRFSGVPDRFSGSGSGTDFTLKISRVEAEDVGVYYCGQGTQVPYTFGQGTKLEIKRTVAAPSVFIFPPSDEQLKSGTASVVCLLNNFYPREAKVQWKVDNALQSGNSQESVTEQDSKDSTYSLSSTLTLSKADYEKHKVYACEVTHQGLSSPVTKSFNRGEC	10
154R5A02#2 one-arm antibody (antibody, human IgG1, kappa, L234A L235A, N297A, As m48) heavy: QVQLVESGGGLVQPGRSLRLSCAASGFTFSNAWMHWVRQAPGKGLEWVAQIKDRGNNYNTYYAPSVKGRFTISRDDSKNSIYLQMNSLKTEDTAVYYCRYAHYGSYFFSGSSFGVDIWGQGTTVTVSSASTKGPSVFPLAPSSKSTSGGTAALGCLVKDYFPEPVTVSWNSGALTSGVHTFPAVLQSSGLYSLSSVVTVPSSSLGTQTYICNVNHKPSNTKVDKKVEPKSCDKTHTCPPCPAPEAAGGPSVFLFPPKPKDTLMISRTPEVTCVVVDVSHEDPEVKFNWYVDGVEVHNAKTKPREEQYASTYRVVSVLTVLHQDWLNGKEYKCKVSNKALPAPIEKTISKAKGQPREPQVYTLPPSRCELTKNQVSLSCAVKGFYPSDIAVEWESNGQPENNYKTTPPVLDSDGSFFLVSKLTVDKSRWQQGNVFSCSVMHEALHNHYTQKSLSLSPDYKDDDDK EPKSSDKTHTCPPCPAPELLGGPSVFLFPPKPKDTLMISRTPEVTCVVVDVSHEDPEVKFNWYVDGVEVHNAKTKPREEQYNSTYRVVSVLTVLHQDWLNGKEYKCKVSNKALPAPIEKTISKAKGQPREPQVCTLPPSRDELTKNQVSLWCLVKGFYPSDIAVEWESNGQPENNYKTTPPVLDSDGSFFLYSKLTVDKSRWQQGNVFSCSVMHEALHNRYTQKSLSLSP light: DIVMTQSPLSLPVTPGEPASISCRSSQSLVHSNRNTYLHWYQQKPGQAPRLLIYKVSNRFSGVPDRFSGSGSGTDFTLKISRVEAEDVGVYYCGQGTQVPYTFGQGTKLEIKRTVAAPSVFIFPPSDEQLKSGTASVVCLLNNFYPREAKVQWKVDNALQSGNSQESVTEQDSKDSTYSLSSTLTLSKADYEKHKVYACEVTHQGLSSPVTKSFNRGEC	106
